Source: patent US20250043302A1, “MUTATED HYDROXYPHENYLPYRUVATE DIOXYGENASE POLYPEPTIDE, AND CODING GENE AND USE THEREOF” (BEIJING DABEINONG BIOTECHNOLOGY CO., LTD., priority 2021, published 2025)

Legend:
Format in all cases: in vivo
[1] = test system: Arabidopsis thaliana T1 plants; experiment: Isoxaflutole tolerance of transgenic Arabidopsis thaliana T1 plants (spray, bleached leaf area grade, damage score); details: for Classification and statistics of the grade of pesticide damage Grade 0 / Classification and statistics of the grade of pesticide damage Grade 1 / Classification and statistics of the grade of pesticide damage Grade 2 / Classification and statistics of the grade of pesticide damage Grade 3: number of plants in grade;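 as to Scores: Weighted damage index from 0 to 100 where higher means more damage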
Outline: (§1)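 Damage was assessed by bleaching grade (0 none; 1 <50%; 2 >50%; 3 100% of leaf area) one week after spraying. Sprays on 18-day-old T1 and wild-type plants used field-rate multiples: topramezone 25–200, isoxaflutole 35–280, mesotrione 52.5–420 g ai/ha.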

[2] = test system: Arabidopsis thaliana T1 plants; experiment: Topramezone tolerance of transgenic Arabidopsis thaliana T1 plants (spray, bleached leaf area grade, damage score); details: Table 13; for Classification and statistics of the grade of pesticide damage Grade 0: number of plants at grade 0; for Classification and statistics of the grade of pesticide damage Grade 1: number of plants at grade 1; for Classification and statistics of the grade of pesticide damage Grade 2: number of plants at grade 2; for Classification and statistics of the grade of pesticide damage Grade 3: number of plants at grade 3; for Scores: pesticide damage score
Outline: as §1

[3] = test system: Arabidopsis thaliana T1 plants; experiment: Mesotrione tolerance of transgenic Arabidopsis thaliana T1 plants (spray, bleached leaf area grade, damage score); design: Scores: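 damage score 0-100 computed as Σ(N×S)/(T×M)×100 over grades 0-3 with higher meaning more damage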; details: for Classification and statistics of the grade of pesticide damage Grade 0 / Classification and statistics of the grade of pesticide damage Grade 1 / Classification and statistics of the grade of pesticide damage Grade 2 / Classification and statistics of the grade of pesticide damage Grade 3: number of plants in grade
Outline: as §1

B1: AtHPPDm-F372A-F383Y-02: nucleotide sequence encoding Arabidopsis thaliana HPPD with F372A+F383Y; vector DBN11798 (nucleic acid)
DNA: ATGGGACATCAGAATGCTGCTGTATCAGAAAATCAAAATCATGATGATGGAGCCGCCTCCTCACCAGGGTTTAAGTTGGTTGGGTTCTCCAAGTTTGTACGGAAGAACCCAAAATCCGACAAGTTCAAGGTTAAACGCTTCCACCACATTGAATTCTGGTGCGGCGACGCCACCAATGTTGCTCGGCGTTTTTCATGGGGTTTAGGCATGAGATTCTCAGCAAAGAGTGACCTGAGCACCGGCAACATGGTTCATGCTAGCTATCTCTTAACATCTGGAGATTTGAGGTTTCTTTTCACGGCGCCGTACTCACCATCACTCTCCGCCGGCGAGATCAAACCCACCACGACTGCAAGCATACCTTCATTTGATCATGGTAGTTGCAGATCCTTCTTCTCGTCGCACGGCCTAGGGGTGCGCGCGGTCGCCATCGAAGTTGAAGATGCAGAATCAGCGTTTAGTATCAGCGTGGCAAATGGAGCTATTCCTTCCTCCCCTCCAATTGTCCTCAATGAGGCTGTAACTATTGCCGAGGTGAAGTTGTATGGAGATGTTGTGCTGAGATATGTTTCTTACAAGGCAGAGGACACTGAGAAATCTGAATTTTTGCCTGGTTTTGAAAGGGTCGAGGATGCTTCAAGTTTTCCTCTTGATTACGGCATACGACGGTTGGATCACGCGGTTGGAAATGTACCAGAACTTGGGCCGGCGCTCACTTATGTGGCTGGTTTCACTGGATTCCATCAATTTGCTGAGTTCACAGCTGATGATGTTGGGACTGCTGAAAGTGGGTTGAACTCTGCAGTCCTCGCCTCTAATGATGAAATGGTGCTCCTCCCGATCAACGAGCCTGTGCATGGCACCAAAAGGAAATCACAAATACAGACATATCTTGAGCACAATGAAGGTGCAGGGCTTCAACATCTTGCACTGATGTCTGAAGACATTTTCCGTACGCTGAGAGAGATGAGGAAGAGAAGTAGTATTGGTGGATTTGACTTCATGCCTTCTCCCCCACCAACTTACTACCAGAACTTGAAGAAGAGGGTTGGTGATGTGCTATCTGATGACCAGATCAAGGAGTGTGAAGAATTGGGCATTCTTGTTGATCGGGACGACCAAGGAACATTACTGCAGATAGCCACAAAACCACTTGGTGACCGCCCCACTATTTATATTGAGATCATACAAAGAGTCGGCTGCATGATGAAGGATGAGGAAGGAAAAGCATATCAATCTGGTGGTTGTGGCGGCTTTGGGAAAGGAAACTTCTCTGAGCTGTTCAAATCCATCGAGGAGTATGAGAAGACCTTGGAGGCCAAGCAGCTCGTGGGTTGA
modifications: AtHPPDm-F372A-F383Y-02 Nucleotide Sequence
notes: vector DBN11798
- Resistance evaluation ([1]; isoxaflutole 35 g ai/ha): Poorly
- Scores ([1]; isoxaflutole 35 g ai/ha): 56
- Classification and statistics of the grade of pesticide damage Grade 0 ([1]; isoxaflutole 35 g ai/ha): 0
- Classification and statistics of the grade of pesticide damage Grade 1 ([1]; isoxaflutole 35 g ai/ha): 9
- Classification and statistics of the grade of pesticide damage Grade 2 ([1]; isoxaflutole 35 g ai/ha): 3
- Classification and statistics of the grade of pesticide damage Grade 3 ([1]; isoxaflutole 35 g ai/ha): 4
- Resistance evaluation ([1]; isoxaflutole 70 g ai/ha): Non-resistant
- Scores ([1]; isoxaflutole 70 g ai/ha): 100
- Classification and statistics of the grade of pesticide damage Grade 0 ([1]; isoxaflutole 70 g ai/ha): 0
- Classification and statistics of the grade of pesticide damage Grade 1 ([1]; isoxaflutole 70 g ai/ha): 0
- Classification and statistics of the grade of pesticide damage Grade 2 ([1]; isoxaflutole 70 g ai/ha): 0
- Classification and statistics of the grade of pesticide damage Grade 3 ([1]; isoxaflutole 70 g ai/ha): 16
- Resistance evaluation ([2]; topramezone 25 g ai/ha (1×)): Poorly
- Classification and statistics of the grade of pesticide damage Grade 0 ([2]; topramezone 25 g ai/ha (1×)): 4
- Classification and statistics of the grade of pesticide damage Grade 1 ([2]; topramezone 25 g ai/ha (1×)): 4
- Classification and statistics of the grade of pesticide damage Grade 2 ([2]; topramezone 25 g ai/ha (1×)): 8
- Classification and statistics of the grade of pesticide damage Grade 3 ([2]; topramezone 25 g ai/ha (1×)): 0
- Scores ([2]; topramezone 25 g ai/ha (1×)): 42
- Resistance evaluation ([2]; topramezone 100 g ai/ha (4×)): Non-resistant
- Classification and statistics of the grade of pesticide damage Grade 0 ([2]; topramezone 100 g ai/ha (4×)): 0
- Classification and statistics of the grade of pesticide damage Grade 1 ([2]; topramezone 100 g ai/ha (4×)): 0
- Classification and statistics of the grade of pesticide damage Grade 2 ([2]; topramezone 100 g ai/ha (4×)): 4
- Classification and statistics of the grade of pesticide damage Grade 3 ([2]; topramezone 100 g ai/ha (4×)): 12
- Scores ([2]; topramezone 100 g ai/ha (4×)): 92
- Resistance evaluation ([3]; mesotrione 52.5 g ai/ha): Poorly resistant
- Scores ([3]; mesotrione 52.5 g ai/ha): 63
- Classification and statistics of the grade of pesticide damage Grade 0 ([3]; mesotrione 52.5 g ai/ha): 0
- Classification and statistics of the grade of pesticide damage Grade 1 ([3]; mesotrione 52.5 g ai/ha): 5
- Classification and statistics of the grade of pesticide damage Grade 2 ([3]; mesotrione 52.5 g ai/ha): 8
- Classification and statistics of the grade of pesticide damage Grade 3 ([3]; mesotrione 52.5 g ai/ha): 3
- Resistance evaluation ([3]; mesotrione 105 g ai/ha): Non-resistant
- Scores ([3]; mesotrione 105 g ai/ha): 100
- Classification and statistics of the grade of pesticide damage Grade 0 ([3]; mesotrione 105 g ai/ha): 0
- Classification and statistics of the grade of pesticide damage Grade 1 ([3]; mesotrione 105 g ai/ha): 0
- Classification and statistics of the grade of pesticide damage Grade 2 ([3]; mesotrione 105 g ai/ha): 0
- Classification and statistics of the grade of pesticide damage Grade 3 ([3]; mesotrione 105 g ai/ha): 16
